Tests used:
[1] = target: T1, RSV postfusion F, subtype B (postF trimer) (Respiratory syncytial virus subtype B, UniProt P13843 26-513); assay: BLI, IgG apparent affinity
T1 construct: also called Postfusion subtype B

[2] = target: RSV F on recombinant mKate-RSV A2 virus (Respiratory syncytial virus A2, UniProt P03420 26-574); assay: cell-based or functional assay
[3] = target: RSV F on recombinant mKate-RSV B 18537 virus (Respiratory syncytial virus B 18537, UniProt P13843 26-574); assay: cell-based or functional assay
[4] = target: RSV fusion glycoprotein (RSV F) on RSV-A2 virus (respiratory syncytial virus, UniProt P03420 26-574); assay: cell-based or functional assay
[5] = target: RSV prefusion F (preF), DS-Cav1 (respiratory syncytial virus, UniProt P03420 26-513); assay: BLI, IgG on sensor, 100 nM antigen
[6] = target: RSV postfusion F (postF), F deltaFP (respiratory syncytial virus, UniProt P03420 26-513); assay: BLI, IgG on sensor
[7] = target: RSV prefusion F (preF), DS-Cav1 stabilized trimer, subtype A (Respiratory Syncytial Virus, subtype A, UniProt P03420 26-513); assay: BLI, IgG on anti-human IgG sensors, 100 nM antigen, apparent KD
[8] = target: RSV F on RSV subtype A virus (RSV-A2) (Respiratory Syncytial Virus, subtype A, …, UniProt P03420 26-574); assay: cell-based or functional assay

B1: ADI-21086 (antibody, V domains shown)
VH: EVQLVETGGGLVKPGGSLRLSCAASPFAFSNYYMSWIRQAPGKGLEWISNISGGSTFTNYADSVKGRFTISRDNARNSLYLLMNNLRTEDTAVYYCAREASVAAGTPEGFDVWGQGTTVTVSS
VL: QSVVTQPPSVSGAPGQRVTISCTGSSSNIGAGYDVNWYQQFPGTAPKLLIYGNRNRPSGVPARFSGSKSGASASLAITGLQAEDEADYYCHSYDSGLSGSVFGGGTKLTVL
- binding result [1]: no binding
- Neut IC50 (ug/ml) subtype A [2]: 0.11 µg/mL
- Neut IC50 (ug/ml) subtype B [3]: 0.47 µg/mL

B2: ADI-41450 (antibody, V domains shown)
VH: EVQLVESGGGLVKPGGSLRLSCAASGFAFSSYGINWVRQVPGKRLEWVSSISGGSSFINYADSVKGRFTISRDNAGNSVYLQMNSLRAEDTAVYFCARESYGSGSSLNWFDPWGQGTLVTVSS
VL: QSVLTQPPSVSGAPGQRVTISCTGSGSNIGAGYDVHWYQQLPGIAPRLVIFGNRNRPSGVPDRISGSKSDTSASLAITGLQAEDEGDYYCQSYDKRLSGWVFGGGTKLTVL
notes: IgG1
- Neutralization IC50 (RSV subtype A) [4]: 0.21 µg/mL
- Kd [5]: 0.613 nM
- binding result [6]: no binding (tested: 100 nM antigen)

B3: ADI-41447 (antibody, V domains shown)
VH: EVQLLESGGGLVQPGGSLRLSCAASGFTFSTYAMNWVRQAPGKGLEWVSTISGSGGSTYYGDSVKGRFTISRDNSKNTLYLQMNSLRAEDTAVYYCAKAPTPWCSGGSCYVSYWGQGTLVTVSS
VL: DIVMTQTPGTLSLSPGERGTLSCRASQSVSSSYLAWYQQKPGQAPRLLIYGASSRATGIPDRFGGSGSGTDFTLTISTLEPEDFAVYYCQQYQSSPWTFGQGTKLEIK
notes: IgG1
- Neutralization IC50 (RSV subtype A) [4]: > 25 µg/mL
- Kd [5]: 54.1 nM
- binding result [6]: no binding (tested: 100 nM antigen)

B4: ADI-41401 (antibody, V domains shown)
VH: EVQLLESGGGLVHPGRSLRLSCAASGFTFGDYAMHWVRQAPGKGLEWVSGISWNSDTIEYADSVKGRFTISRDNAKNSLYLQMNSLRAEDTALYYCAKDFGSSWEAYFDYWGQGTLVTVSS
VL: DIVLTQSPSYLSASVGDRVTITCRASQSISTYLNWYQQKPGKAPKLLISAASSLQSGVTSRFSGSGSGTDFSLTISSLQPEDFATYYCQQSYSTALTFGGGTKVEIK
notes: IgG1
- Neutralization IC50 (RSV subtype A) [4]: > 25 µg/mL
- Kd [5]: 3.22 nM
- binding result [6]: no binding (tested: 100 nM antigen)

B5: ADI-41356 (antibody, V domains shown)
VH: QVQLVQSGAEVKKPGASVKVSCKASGYTFTNYDINWVRQATGQGLEWMGWMNRNNGNTGYARKFQGRVTMTRNTSISTAYMELSSLRSEDTAVYYCARGGDFYAMDVWGQGTTVTVSS
VL: SYELTQPPSVSVSPGQTASITCSGDKLGDKYASWYQQKPGQSPVLVIYQDTKRPSGVPERFSGSNSGNTATLTISGTQAVDEADYYCQVWDGSIAFGGGTKVTVL
notes: IgG1
- Neutralization IC50 (RSV subtype A) [4]: 0.115 µg/mL
- Kd [5]: 0.725 nM
- binding result [6]: no binding (tested: 100 nM antigen)

B6: ADI-41377 (antibody, V domains shown)
VH: QVQLQQSGPGLVKPSQTLSLTCAISGDSVSSDSATWNWIRQSPSRGLEWLGRAYYRSKWYYDYAPSVKSRLTINPDTSKNQFSLQLTSVTPQDTAVYFCARDLPPLEYFDGSGYYFLDHWGQGTLVTVSS
VL: SYELTQPPSVSVAPGQTARLSCGGHNIGSKSVQWYQQKPDQAPVLVVYDDHDRPSGIPDRFSGSNSGDMATLTISRVEAGDEADYYCQVCESGRDPMVFGGGTKVTVL
notes: IgG1; also called Ab 674
- Neutralization IC50 (RSV subtype A) [4]: 0.24 µg/mL
- Kd [5]: 1.74 nM
- binding result [6]: no binding (tested: 100 nM antigen)

B7: ADI-41416 (antibody, V domains shown)
VH: EVQLVESGGGLVKPGGSLRLSCAASGFKFSSYTMNWVRQAPGKGLEWVSSITGGSSFINYADSVKGRFTISRDNAKNSLYLQMVSLRAEDTAVYYCARDLSSHITIFGAVSDYWGRGTTVTVSS
VL: QSVLTQPPSVSGAPGQRVTISCTGSSSNIGAGYDAHWFQQLPGSAPKLLIYANTNRPSGVPDRFSGSKSGTSASLAITGLQAEDEADYYCQSYDSTLSVVFGGGTKLTVL
notes: IgG1
- Neutralization IC50 (RSV subtype A) [4]: 0.05 µg/mL
- Kd [5]: 0.444 nM
- binding result [6]: no binding (tested: 100 nM antigen)

B8: ADI-41434 (antibody, V domains shown)
VH: EVQLVESGGGLVQPGRSLRLSCEASGFTFDDYAMHWVRQTPGKGLEWVSGISWNSGSIVYADSVKGRFTISRDNAKNSLYLQMHSLRPEDTALYYCAKDNYTFGNYYYYYGMDVWGQGTTVTVSS
VL: EIVLTQSPVTLSVSPGERATLSCRASQNVISNLAWYQQKPGQAPRLLIYGASTRATGIPARFSGSGSGTEFTLTISSLQSEDFAVYYCQQYNNWPLSFGGGTKVEIK
notes: IgG1; also called Ab 718
- Neutralization IC50 (RSV subtype A) [4]: > 25 µg/mL
- Kd [5]: 0.613 nM
- binding result [6]: no binding (tested: 100 nM antigen)

B9: ADI-41442 (antibody, V domains shown)
VH: EVQLLESGGGLVQPGRSLRLSCAASGFTFDDYAMHWVRQAPGKGLEWVSGISWHSGSIVYADSVKGRFTISRDNAKNSLYLQMSSLRAEDTALYYCVKDHYNWNDNPHFHYGLDVWGQGTTVTVSS
VL: EIVLTQSPATLSVSPGERATLSCRASQSVISNLAWYQQKPGQAPRLFIYGASTRATGIPARFSGSGSGTEFTLTISSLQSEDFAVYFCQQYNNWPITFGQGTRLEIK
notes: IgG1; also called Ab 726
- Neutralization IC50 (RSV subtype A) [4]: 0.04 µg/mL
- Kd [5]: 0.521 nM
- binding result [6]: no binding (tested: 100 nM antigen)

B10: ADI-21082 (antibody, V domains shown)
VH: EVQLVESGGGLVKPGGSLKLSCVASGLKFSSYSMNWVRQAPGKGLEWVSSVSAGSSYTNYADSVKGRFTISRDNAKNSLYLQMNSLRVDDTAVYYCATERCSGGSCYLHGFDPWGQGTTVTVSS
VL: QSVLTQPPSVSGAPGQRVTISCTGSSSNIGAGYDVHWYQQLPGTAPKLLIFDNIIRPSGVPDRFSGSKSGTSASLAITGLQADDEADYYCQSYDKSGDYVFGTGTKVTVL
- Kd [1]: 6.17 nM
- Neut IC50 (ug/ml) subtype A [2]: 0.09 µg/mL
- Neut IC50 (ug/ml) subtype B [3]: 0.25 µg/mL

B11: ADI-41828 (antibody, V domains shown)
VH: EVQLVESGGGLVQPGGSLRLSCADSDFTFSTYSMNWVRQAPGKGLEWISYITGRSSAIYYADSVKGRFTISRDNAKNSLFLQMNSLRAEDTAVYYCTTFMAGYSFGHGDAFDIWGQGTTVTVSS
VL: SYELTQPPSVSVAPGQTARITCGGNNIGSKSVHWYQQKPGQAPVLVVYDDSDRPSGIPERFSGSNSGNTATLTISRVEAGDEADYYCQVWNSNSDHPHWVFGGGTQLTVL
- Kd [7]: 0.241 nM
- Neutralization IC50 (RSV subtype A) [8]: 5.53 µg/mL

B12: ADI-41449 (antibody, V domains shown)
VH: EVQLVESGGGLVKPGGSLRLSCAASGFSFSSYRVNWVRQAPGKGLEWVSSITGGSSFIDYADSVKGRFTISRDNAKNSLFLQMNSLRAEDTAVYFCARDSMTTVTNSLAFDIWGQGTMVTVSS
VL: QSVLTQPPSVSGAPGQRVTISCTGSSSNIGVGYDVQWYQQLPGTAPKLLIYSNNKRPSGVPDRFSGSKSGTSASLAITGLQAEDEADYYCQSYDRSLSVVFGGGTKVTVL
notes: IgG1
- Neutralization IC50 (RSV subtype A) [4]: 0.16 µg/mL
- Kd [5]: 0.508 nM
- binding result [6]: no binding (tested: 100 nM antigen)

B13: ADI-41419 (antibody, V domains shown)
VH: EVQLVESGGGLVQPGRSLRLSCAASGFTFDDYAMHWVRQAPGKGLEWVSGISWNSGSVGYSDSVKGRFTISRDNAKSSLYLQMNNLRAEDTALYYCARDMAHTQDYFDTSEYDSWGQGTLVTVSS
VL: QPVLTQPASVSGSPGQSITISCTGTSSDIGAYNYVSWYQQHPGKAPKLVVYEVNNRPSGISNRFSGSKSGNTASLTISGLQAEDEADYYCSSYTVSATLVFGGGTKLTVL
notes: IgG1
- Neutralization IC50 (RSV subtype A) [4]: 0.01 µg/mL
- Kd [5]: 0.305 nM
- binding result [6]: no binding (tested: 100 nM antigen)

B14: ADI-41421 (antibody, V domains shown)
VH: QVQLVESAAEVKRPGASLKVSCKASGYTFIDYDISWVRQAPGQGLDWMGWISTYDGSAKYPENLQARVAMTTDTSTSTAYMELESLTSDDTAVYYCARARRGSSGWVSTTGPTPFFDYWGRGTLVTVSS
VL: SYELTQPPSVSVSPGQTARITCSGDALPKRYAYWYQQKSGQAPVLVIYEDNKRPSGIPERFSGSSSGTVATLTISGAQVEDEADYSCYSTDATGNHRGLFGGGTKLTVL
notes: IgG1
- Neutralization IC50 (RSV subtype A) [4]: 4.78 µg/mL
- Kd [5]: 2.52 nM
- binding result [6]: no binding (tested: 100 nM antigen)

B15: ADI-41398 (antibody, V domains shown)
VH: EVQLLESGAEVKKPGASVKVSCKASGYTFTNYGISWVRQAPGQGLEWMGWISAYNGNTNYAQKLQGRVTMTTDTSTSTAYMELRSLRSDDTAVYYCARDGGVIAAATLGYWGQGTLVTVSS
VL: EIVLTQSPLSLPVTLGQPASISCRSSQSLVYSDGNTYLSWFQQRPGQSPRRLIYKISNRDSGVPNRFSGSGSGTDFTLKISRVEAEDVGIYYCMQGIYWPPTFGQGTKVEIK
notes: IgG1; also called Ab 691
- Neutralization IC50 (RSV subtype A) [4]: 0.17 µg/mL
- Kd [5]: 0.6 nM
- binding result [6]: no binding (tested: 100 nM antigen)

B16: ADI-21089 (antibody, V domains shown)
VH: EVQLLESGGGLVKPGGSLRLSCVASGFRFTSYSMNWVRQAPGKGLEWVSSISASSSYVDYADSLKGRFTISRDNAQNSLFLQMNSLRAEDTAVYYCARDYYDSGNYHSPFPMDVWGQGTTVTVSS
VL: QSVLTQPPSVSGAPGQRVTISCTGSRSNIGAGYDVHWYQQLPGTAPKLLIYGNNKRPSGVPDRFSGSKSGTSASLAITGLQAEDEADYYCQSYDSGPIFGGGTKVTVL
- Kd [1]: 3.34 nM
- Neut IC50 (ug/ml) subtype A [2]: 0.27 µg/mL
- Neut IC50 (ug/ml) subtype B [3]: 0.17 µg/mL

B17: ADI-41352 (antibody, V domains shown)
VH: EVQLVESGGGLVQPGGSLRLSCAASGFTFSSYRMNWVRQAPGKGLEWVSYIDISSSTIYYADSVKGRFTISRDNAKNSLYLQMNSLRAEDTAVYYCARDQLVWEPLIRNHYYYAMDVWGQGTTVTVSS
VL: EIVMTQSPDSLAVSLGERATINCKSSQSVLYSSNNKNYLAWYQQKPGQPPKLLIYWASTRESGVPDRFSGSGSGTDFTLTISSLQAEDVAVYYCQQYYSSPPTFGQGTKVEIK
notes: IgG1
- Neutralization IC50 (RSV subtype A) [4]: > 25 µg/mL
- Kd [5]: 3.36 nM
- binding result [6]: no binding (tested: 100 nM antigen)

From US20260258115A1 (MAPP BIOPHARMACEUTICAL, published 2026)
